Measured values published in the supplement of paper PMC12338614.

B1: library; numbered along this chain (parent)
chain: MEVVDPQQLGMFTEGELMSVGMDTFIHRIDSTEVIYQPRRKRAKLIGKYLMGDLLGEGSYGKVKEVLDSETLCRRAVKILKKKKLRRIPNGEANVKKEIQLLRRLRHKNVIQLVDVLYNEEKQKMYMVMEYCVCGMQEMLDSVPEKRFPVCQAHGYFCQLIDGLEYLHSQGIVHKDIKPGNLLLTTGGTLKISDLGVAEALHPFAADDTCRTSQGSPAFQPPEIANGLDTFSGFKVDIWSAGVTLYNITTGLYPFEGDNIYKLFENIGKGSYAIPGDCGPPLSDLLKGMLEYEPAKRFSIRQIRQHSWFRKKHPPAEAPVPIPPSPDTKDRWRSMTVVPYLEDLHGADEDEDLFDIEDDIIYTQDFTVPGQVPEEEASHNGQRRGLPKAVCMNGTEAAQLSTKSRAEGRAPNPARKACSASSKIRRLSACKQQ

Variants of: B1
Assay: STK11 functional score (HeLa growth suppression), rescaled enrichment; synonymous median = 1, nonsense median = 0 (normalised score)
Details: with HeLa; variant type: missense
Procedure, shortened: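 Codon-randomised (POPCode) libraries of codon-optimised STK11 were integrated by Bxb1 at an AAVS1 landing pad in HeLa, in three regions each transfected three times. Integrants (BFP-negative, mCherry-positive) were FACS-sorted 4–5 days after electroporation and grown about two weeks; tiled gDNA amplicons were sequenced on NextSeq (~2 million reads per tile). The functional score is the wild-type-corrected post/pre-selection log ratio, rescaled to synonymous and nonsense medians, merged over codons and replicate transfections, with bootstrapped error.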

STK11 functional score of substitutions, site by site:
S216: L 0.0797 | E -0.148 | G 0.926 | F -0.0894 | A 0.851 | P 0.894 | M 0.227 | T 0.847 | D 0.167 | R -0.166 | I 0.119 | Y -0.11 | V 0.614 | W -0.0568 | N 0.349 | K -0.0726
D208: S 1.26 | I 1.31 | R 1.59 | Y 0.93 | C 1.26 | P 1.62 | G 1.37 | Q 1.58 | V 1.06 | L 1.36 | E 1.38 | M 1.7 | W 0.524 | N 1.4 | A 1.19 | T 1.04
T212: I 1.13 | Y 1.38 | E 1.65 | P 0.926 | R 1.48 | H 1.59 | G 1.3 | A 1.41 | Q 1.65 | C 1.32 | M 0.927 | W 1.41 | V 0.545 | D 1.48 | N 0.481 | L 1.06 | S 0.909
N226: W 1.65 | Q 1.45 | R 1.51 | I 0.495 | T 1.26 | A 1.61 | H 0.561 | E 0.0384 | M 0.459 | L 1.08 | C 1.29 | V 0.778 | P 0.609 | K 0.86 | G 1.24 | S 0.759
D207: S 0.778 | Y 0.314 | G 0.954 | V 1.09 | M 1.17 | E 1.48 | W 0.239 | R 1.55 | A 1.27 | L 0.856 | N 0.668 | H 1.37 | P 1.01
P221: L 0.159 | C 0.759 | F -0.0165 | G 1.03 | I 0.337 | R 0.116 | D 0.00575 | Y -0.0979 | S 1.07 | V 1.01 | M 0.39
P217: R 0.3 | S 0.334 | G 1.53 | C 0.451 | E 0.536 | W 1.66 | F 1.45 | Y 1.45 | A 1.25 | H 0.332 | L 0.248 | V 0.177
Q220: L 0.714 | R 0.808 | T 1.67 | C 1.18 | E 0.51 | P 0.0844 | D 0.747 | M 1.15 | H 0.87 | V 0.924 | A 1.3 | K 0.583 | W 1.46 | G 0.849 | S 1.21 | Y 1.33
L228: F 1.34 | M 0.601 | A 1.66 | R 1.68 | Y 1.25
A206: D 1.07 | E 0.305 | I 1.46 | Q 1.07 | N 1.66 | V 0.497 | R 1.64 | P 1.24 | T 0.479 | G 1.14 | W 0.035 | F 0.495 | L 1.03 | S 1.17
F219: R 0.1 | S 0.778 | A 0.528 | Y 1.29 | P 0.116 | Q 1.57 | K -0.214 | I 1.31 | H 1.18 | G 0.713 | V 0.825 | W 1.49 | L 1.11 | C 0.557
P222: A 0.83 | Q 0.712 | S 1.15 | M 0.595 | T 0.499 | G 0.489 | D -0.103 | C 0.773 | F 0.44 | I 1.13 | E 0.0466 | V 0.826 | N 1.61 | H 0.314 | L 0.281 | W 0.686 | R 0.93
Q214: Y 1.19 | C 0.896 | I 1.05 | T 1.64 | R 1.45 | V 0.919 | W 0.779 | M 1.66 | N 1.27 | E 1.36 | P 0.598 | L 1.05 | F 1.04 | H 1.39 | G 1.57 | A 1.18 | D 1.33 | S 0.787
T209: A 1.2 | F 0.568 | I 0.703 | L 1 | Q 1.5 | C 1.12 | G 1.36 | S 0.82 | N 1.51 | M 1.43 | R 1.27 | E 1.17 | P 1.27 | H 1.34 | V 1.42 | W 1.28
R211: C 1.25 | E 1.53 | I 0.844 | S 1.32 | Y 1.53 | D 1.68 | P 1.19 | L 1.21 | H 1.32 | F 1.61 | A 1.28 | G 1.51 | V 1.35 | M 1.42 | T 1.22
A218: M 1.35 | D 0.324 | I 0.926 | N 1.35 | K 1.28 | S 1.09 | E 1.23 | P 0.529 | Y 1.34 | H 0.853 | L 0.905 | Q 1.25 | T 0.88 | G 0.816 | C 0.947 | F 1.26 | V 1.07 | R 0.926 | W 0.671
G227: R 0.588 | F 1.14 | L 0.694 | C 0.981 | P 1.1 | M 1.69 | Q 1.26 | D 1.13 | W 1.29 | E 0.563 | T 1.67 | Y 1.46 | S 1.49 | A 0.273 | V 0.625
A225: T 1.65 | L 1.52 | G 1.05 | Y 0.922 | P 1.22 | V 1.28 | I 1.42 | S 1.06 | R 1.07
A205: W 1.7
D229: A 0.987
S213: C 0.758 | M 1.15 | N 1.65 | T 1.05 | R 1.04 | V 1.02 | A 1.38 | H 1.68 | F 1.35 | Y 1.34 | G 1.37 | I 0.902 | W 1.14 | L 1.17 | P 1.32
C210: K 1.3 | T 1.35 | W 0.601 | A 1.33 | P 1.18 | E 0.0554 | V 1 | S 0.964 | G 1.03 | D 1.37 | M 0.956 | L 0.435 | F 1.04 | H 1.42 | I 1.12
I224: P 0.889 | T 0.252 | K 1.19 | L 1.28 | S 1.31 | Q 0.698 | V 0.835 | F 1.09 | N 1.47 | H 1.46 | R 1.04 | W 1.3 | E 1.03 | M 1.11
E223: R 0.921 | G 0.169 | W 0.142 | D 0.948 | T 0.188 | Y 1 | C 1.03 | Q 0.735 | V 0.469 | S 0.551 | K 0.308 | I 0.17 | H 1.18 | L 0.529
G215: I 0.938 | C 1.06 | M 0.509 | N 1.43 | Y 1.08 | D 0.255 | W 0.29 | A 1.15 | S 1.11 | V 0.788 | L 1.04 | Q 0.0889 | R 0.426 | T 1.19 | H 0.951
